According to a protein production outcome set (Wang et al. 2014):

Experiment: label from the status in PepcDB records

| Sequence | protein production |
| --- | --- |
| MNTSHVRVVTHMCGFLVWLYSLSMLPPMVVALFYKEKSLFVFFITFVIFFCIGGGAWYTTKKSGIQLRTRDGFIIIVMFWILFSVISAFPLWIDSELNLTFIDALFEGVSGITTTGATVIDDVSSLPRAYLYYRSQLNFIGGLGVIVLAVAVLPLLGIGGAKLYQSEMPGPFKDDKLTPRLADTSRTLWITYSLLGIACIVCYRLAGMPLFDAICHGISTVSLGGFSTHSESIGYFNNYLVELVAGSFSLLSAFNFTLWYIVISRKTIKPLIRDIELRFFLLIALGVIIVTSFQVWHIGMYDLHGSFIHSFFLASSMLTDNGLATQDYASWPTHTIVFLLLSSFFGGCIGSTCGGIKSLRFLILFKQSKHEINQLSHPRALLSVNVGGKIVTDRVMRSVWSFFFLYTLFTVFFILVLNGMGYDFLTSFATVAACINNMGLGFGATASSFGVLNDIAKCLMCIAMILGRLEIYPVIILFSGFFWRS | failed |
| MACEGAPEVRIGRKPVMNYVLAILTTLMEQGTNQVVVKARGRNINRAVDAVEIVRKRFAKNIEIKDIKIDSQEIEVQTPEGQTRTRRVSSIEICLEKAGESA | not failed |
| MKVVLAAIHPVPSPQAVPLANAFLKAYLGTDEELAARVAVTLCDFLRSTPADVCAAEILAHEPDAVGFSLYLWNTEESGRIAAELRRNRPGITIFAGGPQATADPLGTLTGGGYDFLILGEGEVPFLEVTARLADGRPFRGAPGTAWLDDGKLASRPQKPVALLDTIPSPFLSGIIEPGRYGGLLWQLSRGCDFACEYCFDYKGTKGVRRFSLERVDAELDFLVRHNVPQVFVLDSTFNVDAKRAKTILRMIRKRAPHIHFHFEVRSEFLDREMARLFAGITCSLQIGLQSADPAILKGIRRHFDPDDFRKRVALLNESGAVFGFDLIYGLPGDSLAGFRQSLDFALALYPNHLDIFPLAVLPGTPLAARAAQAGLDHLPAPPYALTATPTFPAPDMKRAARLAGACDIFYSRGKAVAWFNGVIAPLSLTPAEFLDAFGGWLARQGIEAREEALGDEAIWSLQRSFLAHIFADRRVRRLLPVALDLVDYHYHYAAALLAPPPELPTDRSLAGLNILDQVVCLAPSTRLARFSYEITDLLEAGNADLREICACFSPSPSWAVIYPRGNDIFTESLLESYFLLLEGLDGCCRAGDVVARLALSGEGAAEFLKFAAAEGIVTVRNCP | failed |
| MNSAARNAPAGSQPVKAELWKRVYSRVGSYWKGLVLAVLLMAGAAATQPTLAVIMKPLLDDGFSGAKPHYVWFLPLAVVGLILLRGICNFFSDYLLAWVANNVLRGIRGEMFERLLGLPDADFKRGDTGRLLNRFTIDAGNVTGYATDVITVLVRETLVVIALIGVLLYMSWALTLIILVMLPVSVGIARAFTRRLRRINRETVNMNAELTRVVSEGIDGQRVIKLFDGYDAERRRFDFVNSRLRRFAMRSATADAALTPLTQVCISVAVGAVIAVALSQANSGALTVGSFASFMAALAQIFDPIKRLTNLAGKMQKMLVAAESVFTLVDQTPEADAGTRALPEPVRGKVEFRAVSHRFPDADRDTVSAVSFLVEPGQTVALVGRSGSGKTTLVNMLPRFVLPDGGDILFDDVPIQDLTLRSLRSHLSLVSQDVVLFDDTIAANVGYGAGGTVDDARVRDALAAANLLEFVDGLPLGIHTPVGQNAARLSGGQRQRLAIARALIKNAPVLILDEATSALDNESERQVQASLERLMRGRTTLVIAHRLSTVQNADRIIVLDAGKIVEHGPHSELLAANGLYASLYNMQFRED | failed |
| MLSFIAVGLLARLAVARGEVKYGCTKHELRRLSRRGRLLLVVLWPLVAAFLLAIFPNVPSRNIFGDLILIIAAVLPAALLAFLVNAMLERTRFKVVPRRSPKAHSR | failed |
| MASPATFQFSRTKLNLQINLVERKSPSKLSFPLLFRDQAKSTPIRFPVIRASSSSSASNHKPSLLKTTFISLTAAAALFSASFYFVNKRAAMTPVAVVETTLEKHLETQSNDVNALSLLTEIKFKSDKHEQAIVFLDRLIEIEPYERKWPAMKARILSYHGKSESAIEAFEEILEKDPIRVDAYHYLVMEYYNSKPKLTEIEKRINKVIRRCKKEKKTKEILGFRMLIAQIRFIEGKSVEAIRICEELVKEDPNDFTIYLFQGVVYTLMNKGEEAAKQFEHVARVIPRNHPSRETAARTTNSNEWRVIVAYDNVYCYLSTFARLSMASLFNKFG | failed |
| ARIARVVVHPDYRSDGLGQLSVKAALEWIAERRIPEMRKKKHFVETIAQMARYNPFFEKVGFRYVWETASG | failed |
| VVNDEWLSILGLSRQDITNHISDWDGLIHPNDDQFMKKTVQTHILSGKNYVVEFRMKHADGRWVWIQGSGSVIEYDENTHEPVRLCGTHQDITVRK | failed |
| MKVCLQCENFFSSADWACPSCGYQPERLNGIEAHASEFAHGGGGFKPEYFSELSRLEAGNFWFRARNELILWALRTYKPNAGAFLEVGCGTGFVLSGIARACPEIALNGSEIFLAGLFHAAKRVPSTHFMQMDARRVPFVEEFDAIGAFDVLEHIEEDETVLAQLHNAIKPSGVLLLTVPQHPRLWSASDDYACHVRRYTRVEIEQKVLTAGFELLRSSSFVTSLLPVMMLSRVLQKRKTKDFDPAGELKINAALNKVFYGLMMLELAGIRLGMNYPVGGSRLVVAKKQSALEHHHHHH | not failed |
| METTSVFRADFLSELDAPAQAGTESAVSGVEGLPPGSALLVVKRGPNAGSRFLLDQAITSAGRHPDSDIFLDDVTVSRRHAEFRLENNEFNVVDVGSLNGTYVNREPVDSAVLANGDEVQIGKFRLVFLTGPKQGEDLEHHHHHH | failed |
| MDLFPVLKELAQKTPSKILLIVLDGVGGLPLEPGGPTELEAAKTPNLDRLAEESALGLLTPVYPGLAPGSGPGHLALFGYDPFRYVVGRGALSALGLGADFREGDVALRGNFATLDPEGKVVDRRAGRPPTEENQRVIAKLKEAIPRIEDVEVLFYTESEHRFLVILRGEGLEDKVTDTDPQKTGLPPLKAKALDEASERTARLVNLLSERIREVLKDEPRMNGALFRGASKKPSFPRMQEVYKLTPAAIASYPMYKGLASLVGMEVLPVEGEGDALEGKLKALKENWGRYDFFYFHVKKTDAMGEDGNFHGKVEKVELFDALLPEILALGPDVLAITGDHSTPALLKAHSWHPVPLLLKAPYLRADEARRFTEREAQRGSLGHLRGVELMPLLLAHAGKLLKYGA | failed |
| MVKVLTACGNGMGSSMVIKMKVENALRQLGVSDIESASCSVGEAKGLASNYDIVVASNHLIHELDGRTNGKLIGLDNLMDDNEIKTKLEEALK | failed |
| MAPIFLEYKVVHDNITYYIIYVFIYNLSLKLVTMYTINPSSHTILNYNVSLEPEQIFSNITGVSTYYSLDGKKILAYEDNNGSIIVAYNGLILKKASNNSVRYLIAANYPGIDNSKFPSLYKLAEISIFDSNIRVLVLGVLLTILSSFILKVMVGRYDKVR | failed |
| MGHHHHHHSHMVANPPASKESIDALPEILVTEDHGAVGQEMCCPICCSEYVKGEVATELPCHHYFHKPCVSIWLQKSGTCPVCRCMFPPPL | failed |
| MTKQFHCVTVGNPNAGKSTLFNALTGANQQVGNWSGVTVEKKTGHFTLNGADVYLTDLPGIYDLLPAGNSCDCSLDEQIAQQYLAEQRVDGIINLVDATNIERHLYLTAQLRELSIPMVVVLNKIDAAIKRGICVDLTKMSQELGCPVIGVCSRDPADVAKVQAQVLDLLQGRVSEAPLLLDYDKQIEAGVQLLCRKDPNLSRGRALAMLGNGSGCGSCKNAQLQDEVNTCTQQIAQQGHDIEVMVATTRFNFVERVFQSSVKADGFLTLSDKLDKLVLHPVLGIPVFLFVMYLMFMFSINIGSAFIDFFDVFAGALLVDHFGALLTNIGAPAWVVTILAGGVGQGIQTVSTFIPVIAALFLGLSILESSGYMARAAFVVDGLMRRIGLPGKAFVPMIVGFGCSVPAIMATRTLGSERERIVTGMMAPFMSCGARLPVYALFAAAFFPDSGQNLVFLLYVIGIFAAIGTGLLLRSTLLPGTSSAVVMELPSYELPKFKAVMVRTGKRTKSFILGAGKTIVLVVTLLNFINAIGVDGSFGHEDSQASLLSVASQKVTPIFAPMGIEQDNWPATVGIITGIFAKEAVVGTLNSLYTNATPEGSELTPLADSFNEALATIPANLFGLDLEDPLKLSVGDVSNTEVAAETQGVATSTFSALQSGFTTKVAAFSYLLFILLYTPCVAAMGALVNEFGTRWATFAATWTFALAYGSATVVYQAATFAAHPLQSSLWIGFFLVALVMFYLWLKRKGRRTQQIIPGVRIITE | failed |
| SSQPVISAQEQETQIVLYGKLVEARQKHANKMDVPPAILATNKILVDMAKMRPTTVENVKRIDGVSEGKAAMLAPLWEVIKHFCQTNSVQTDLFSSTKPQ | not failed |
| MRYRNSRQVTGVVKNVTVSQSCGKWYISIQAESEVSTPVHPSASMVGLDAGVAKLASLSDGTVFEPVNSFQKNQKTLARLQRQLSRKVKFSNNWQKQKRKIQRLHSCIANIRRDYLHKVTTTVSKNHVMIVIEDLKVSNMSKSAAGTVSQPGRNVRAKSGLNRSILDQGWYEMRRQLEYKQLWRGGQVLAVPPAYTSQRCACCGHTAKENRLSQSKFRCQVCGYTANADVNGARNILAAGHAVLACGEMVQSGRSLKQEPTEMIQATALEHHHHHH | failed |
| MQVFLQGLLFGIVYIAPIGMQNLFVVSTAIEQPLQRALRVALIVIAFDTSLSLACFYGVGRLLQTTPWLELGVLLIGSLLVFYIGWNLLRKKATAMGTLDADFSYKAAILTAFSVAWLNPQALIDGSVLLAAFRVSIPAALTHFFMLGVILASIIWFIGLTSLISKFKHLMQPRVLLWINRICGGIIILYGVQLLATFITKI | failed |
| MPSLQDLYAAFRRIAPYTHRTPLLTSRLLDGLLGKRLLLKAEHLQKTGSFKARGALSKALALENPKGLLAVSSGNHAQGVAYAAQVLGVKALVVMPEDASPYKKACARAYGAEVVDRGVTAKNREEVARALQEETGYALIHPFDDPLVIAGQGTAGLELLAQAGRMGVFPGAVLAPVGGGGLLAGLATAVKALSPTTLVLGVEPEAADDAKRSLEAGRILRLEAPPRTRADGVRTLSLGERTFPILRERVDGILTVSEEALLEAERLLFTRTKQVVEPTGALPLAAVLEHGARLPQTLALLLSGGNRDFSP | not failed |
| MSIWSPLLFNAEGKKQGYDCRYLHKLTDQGNKLSDSGLPVIFTLAHLCAMAGVSFSLIHSCVSRKYDPYRSFTIKKRSGGYRQIVVPEPELMHLQRWINEFILKRAKVHSCAAAYISGSDIKMNASKHLGANWLIKLDIQRFFESISELQVYYIFHRLGYPKLLSFEMARICTRVDTQSNRHFRPRWNNRIHHFEILEYCDSRVGYLPQGAPTSPSLSNLTCRKLDKEIYDLSCRSDCRYTRYADDFAFSFIDLDREKASNFVNQVSRIISSYGFRKNARKTKIIPPGSKKIITGLVLGNGKVHLQKELKDYIRQNIYFATKYGVDEHCKKRGFVSIDGFYNHLEGIVNFALFIEPDFGEKAFEEFRAIKWPSLIVGLHA | failed |
| MKILLFICGEGLGHTGRCLALGKEFLAAGHEVNFGAYGYSKGLVQKTGYSAYEIPSEIKLAGEAGTFDIRKSIKETLNNLSPSGFRKILRLIEKLDPDVVLSDGYYTGILAAQKRKVPVYFIGHQFNMEEFFWKKGLFAGIAGIFVKRFYNYVFSSVDGIIVPDYPLPYSVNRKNFTISRAVNDNIFFSGPLIRCRYQEAGEKAFKRPNVLSTIGAFGYRAAVFRNVLEAAKLDPSIYYTFISGPEIDPEQFSKVPENVEFTGFTENPFPYYKGSDLVITAGGHGTIMESLAFGLPILSFPDEKHAEQENNASVLEEAGYGKRMSYLTPPEVILACIREIFEDENYSKKTRRLMELAEVLDGPAAVRKFLEEKHRGLEHHHHHH | failed |
| EVVVTALGIKREKKMLGYAVQELKSDELNKTGDPSVTSALQGKVAGLQMNTSATGLGGSTKITIRGNSSLTDNNQPLWIVDGVPFSDTSTSSASRYDGVDRGSASMDINPDDIESISVLKGPNAAALYGSRAGNGVILITTKKGSK | failed |
| GRKVGFRKGPRPGAGPREGGFRNDGPRGEGGYRNDGPRGEGGYRNDGPRGEGPRNEGPRGEGYRNDGPRGEGFRGPRFNNGPSNGYENRQDNNRFGEKRRSAQKPLKVDDEAQFPTLC | failed |
